Experimental data reported in the Immune Epitope Database (IEDB).

biological target: HLA-A*24:02; assay: IEDB peptide-MHC binding, purified MHC/competitive/radioactivity; filed as Kd, often an IC50 or EC50 that approximates it; ≥ and ≤ were set here for values at or beyond the usual limits of such assays; conditions: source organism: Homo sapiens

Row | Kd | Sequence
1 | ≥ 30 µM | KALQRPVSDF

biological target: HLA-A*03:01; assay: as above; conditions: source organism: Homo sapiens

Row | Kd | Sequence
2 | ≥ 30 µM | QSSKALQR
3 | 5.45 µM | SATGFKQSSK
4 | ≥ 30 µM | TGFKQSSK
5 | ≥ 30 µM | TINKEEALQR

biological target: HLA-B*07:02; assay: as above; conditions: source organism: Homo sapiens

Row | Kd | Sequence
6 | ≥ 30 µM | EALQRPVASDF

biological target: HLA-A*02:01; assay: as above; conditions: source organism: Homo sapiens

Row | Kd | Sequence
7 | ≥ 30 µM | ATGFKQSSKAL
8 | ≥ 50 µM | CITQGKAI
9 | ≥ 50 µM | DLSSCITQGKA
10 | ≥ 50 µM | HVASGAGEAAI
11 | ≥ 30 µM | LTINKEEAL
12 | ≥ 30 µM | PLTINKEEAL
13 | ≥ 30 µM | TINKEEAL
14 | ≥ 50 µM | VASGAGEAAI

biological target: HLA-B*08:01; assay: as above; conditions: source organism: Homo sapiens

Row | Kd | Sequence
15 | 3.6 µM | ATGFKQSSKAL
16 | 1.9 µM | LTINKEEAL

biological target: HLA-A*11:01; assay: as above; conditions: source organism: Homo sapiens

Row | Kd | Sequence
17 | 2.15 µM | GFKQSSKALQR
18 | ≥ 5 µM | GKQSSKALQR
19 | ≥ 30 µM | INKEEALQR
20 | ≥ 30 µM | QSSKALQR
21 | 3.53 µM | SATGFKQSSK
22 | ≥ 30 µM | TGFKQSSK
23 | ≥ 30 µM | TINKEEALQR

biological target: HLA-B*27:01; assay: as above; conditions: source organism: Homo sapiens

Row | Kd | Sequence
24 | ≥ 30 µM | NKEEALQR

biological target: HLA-A*03:01; assay: IEDB peptide-MHC binding, purified MHC/competitive/radioactivity; ≥ and ≤ were set here for values at or beyond the usual limits of such assays; conditions: source organism: Homo sapiens

Row | IC50 | Sequence
25 | 0.3 µM | ATGFKQSSK
26 | 0.81 µM | GFKQSSKALQR
27 | 0.545 µM | GKQSSKALQR
28 | 0.4 µM | HSATGFKQSSK
29 | 0.043 µM | KQSSKALQR

biological target: HLA-A*11:01; assay: as above; conditions: source organism: Homo sapiens

Row | IC50 | Sequence
30 | 0.097 µM | ATGFKQSSK
31 | 0.125 µM | HSATGFKQSSK
32 | 0.273 µM | KQSSKALQR

biological target: HLA-B*27:01; assay: as above; conditions: source organism: Homo sapiens

Row | IC50 | Sequence
33 | 0.19 µM | GFKQSSKAL
